Reference: PMC8939775, “Structures of the Omicron Spike trimer with ACE2 and an anti-Omicron antibody” (Science (New York, N.y.), 2022)

Target: T1, SARS-CoV-2 wildtype (WT) spike extracellular domain trimer (proline substitutions 2P or 6P, mutated furin … (SARS-CoV-2, UniProt P0DTC2))
T1 construct: also called WT spike trimer
Details: both partners purified

| Binder | Kd |
| --- | --- |
| JMB2002 IgG (antibody, V domains shown, copies: 2 + 2) VH: QVQLVQSGAEVKKPGSSVKVSCKASGGTFSSYAISWVRQAPGQGLEWMGRIIPIFGTANYAQKFQGRVTITADESTSTAYMELSSLRSEDTAVYYCASLASYSSGWEDVFDIWGQGTMVTVSS VL: DIQMTQSPSSLSASVGDRVTITCRASQGISSWLAWYQQKPGKAPKLLIYDASNLETGVPSRFSGSGSGTDFTFTISSLQPEDIATYYCQQYDNLPLTFGGGTKVEIK | 0.5 ± 0.3 nM |
| JMB2002 Fab (Fab, V domains shown, also called Fab from JMB2002) VH: QVQLVQSGAEVKKPGSSVKVSCKASGGTFSSYAISWVRQAPGQGLEWMGRIIPIFGTANYAQKFQGRVTITADESTSTAYMELSSLRSEDTAVYYCASLASYSSGWEDVFDIWGQGTMVTVSS VL: DIQMTQSPSSLSASVGDRVTITCRASQGISSWLAWYQQKPGKAPKLLIYDASNLETGVPSRFSGSGSGTDFTFTISSLQPEDIATYYCQQYDNLPLTFGGGTKVEIK | 12.2 ± 11.6 nM |
